Holding throughout (format): biochemical
The nature of series [1]: HTP LeuB kinetic assay, oxidative decarboxylation of 3-BM. The following applies: for Km / kcat: substrate 3-BM, mean ± S.D. On the procedure:
(§1) The evaluation of the LeuB variants is performed in two steps using the high-throughput enzyme assay described below. Initially, all of the variants are screened for activity against a single high concentration of 3-IPM, 3-BM and 3-HM. Following the initial evaluation, detailed kinetic analysis is performed on a select number of variants to determine the maximal rate (kcat), Michaelis-Menten constant (KM), and the catalytic efficiency of the variant enzymes (kcat/KM).
(§2) A suitable spectrophotometric LeuB enzyme assay is adapted into a high-throughput format in 96-well plates for the kinetic evaluation of LeuB and its variants (shown in Table 1) against 3-isopropylmalate (3-IPM), 3-butylmalate (3-BM), and 3-hexylmalate (3-HM). See, for example, Hsu, Y.; Kohlhaw, G. B. “Leucine biosynthesis in Saccharomyces cerevisiae. Purification and characterization of beta-isopropylmalate dehydrogenase,” J. Biol. Chem., 1980, 255:7255-7260. Steady state kinetic parameters (kcat, KM and kcat/KM) for the oxidative decarboxylation of the three substrates by the variants are determined in these experiments.
(§3) The HTP kinetic assay involves incubating eight varied concentrations, of 3-IPM (from 0 to 1.2 mM) or 3-BM (from 0 to 2 mM) or 3-HM (from 0 to 2 mM), with 2 mM NAD^+ in LeuB assay buffer (50 mM HEPES, pH 8.0, containing 30 mM KCl and 5 mM MgCl2) at 25° C. The reaction is started by adding from 0.008 μg to 0.5 μg of LeuB variant which has been pre-diluted in assay buffer containing 1 mM DTT and 1 mg/mL BSA. The plate containing the 200 μl of reaction mixture is centrifuged at 2500×g for 15 sec and the absorbance change is followed spectrophotometrically at 340 nm on a BioTek™ plate reader maintained at 25° C. Initial velocity of the enzyme reaction is calculated from the rate of NADH production at 340 nm and using the extinction coefficient of NADH (6.22 mM^−1cm^−1). The kinetic parameters (kcat, KM and kcat/KM) of oxidative decarboxylation of 3-alkylmalate are determined by fitting the data to the Michaelis-Menten equation using nonlinear regression performed using the GraphPad Prism™ software. Table 3 lists the kinetic parameters of the wild type and engineered variants against the three substrates. The amount of enzyme in the reaction mixture is determined using the 660 nm total protein assay kit acquired from Pierce Biotechnology Inc.™, using BSA as the standard.

Series [2] can be described thus: HTP screening assay of LeuB variants, 3-BM. The note with it: 1 mM 3-BM, 2 mM NAD+, pH 8.0, 25° C.; mean of duplicates. On the procedure:
as §1, §2
(§4) The HTP screening assay involves incubating 750 micromoles (μM) of 3-IPM, 1 mM 3-BM or 1 mM 3-HM, with 2 mM nicotinamide adenine dinucleotide (NAD^+) in LeuB assay buffer (50 mM 4-(2-hydroxyethyl) piperazine-1-ethanesulfonic acid (HEPES), pH 8.0, containing 30 mM potassium chloride (KCl) and 5 mM magnesium chloride (MgCl2)) at 25° C. The reaction is started by the addition at 25° C. of working enzyme stock containing from 0.3 microgram (μg) to 1.1 μg of LeuB variant diluted in assay buffer containing 1 mM DTT and 1 milligram per milliliter (mg/mL) bovine serum albumin (BSA). The plate containing the 200 μL of reaction mixture is centrifuged at 2500×g for 15 seconds (sec) and the absorbance change of the reaction mixture is followed spectrophotometrically at 340 nm on a BioTek™ plate reader, pre-equilibrated at 25° C. Initial velocity of the enzyme reaction is calculated from the rate of NADH production at 340 nm and using the extinction coefficient of NADH (6.22 per millimolar per centimeter (mM^−1cm^−1)). The activity of all the variants is normalized with the amount of enzyme present in the reaction mixture and expressed as nanomoles per minute per microgram (nmol·min^−1·μg^−1) (Table 2). Protein concentrations for normalizing the activities are determined using the 660 nm total protein assay kit acquired from Pierce Biotechnology Inc.™, available from Thermo Fisher Scientific, Inc., and using BSA as the standard.

A short description of series [3]: HTP screening assay of LeuB variants, 3-IPM. The following applies: 750 μM 3-IPM, 2 mM NAD+, pH 8.0, 25° C.; mean of duplicates. On the procedure: as §1, §2, §4
Series [4] is described as follows: HTP screening assay of LeuB variants, 3-HM. The note with it: for Specific activity, 3-HM: 1 mM 3-HM, 2 mM NAD+, pH 8.0, 25° C., mean of duplicates; for activity against 3-HM compared with the wild type enzyme: screening at single high concentration. On the procedure: as §1, §2, §4
A short description of series [5]: HTP LeuB kinetic assay, oxidative decarboxylation of 3-HM. The note with it: for Km / kcat: substrate 3-HM, mean ± S.D.; for increase in efficiency of capturing 3-HM compared with the wild type enzyme: more efficient than wild type LeuB. On the procedure: as §1, §2, §3
Series [6] can be described thus: HTP LeuB kinetic assay, oxidative decarboxylation of 3-IPM. The note with it: for decrease in efficiency of capturing 3-IPM compared with the wild type enzyme: less efficient than wild type LeuB; for Km / kcat: substrate 3-IPM, mean ± S.D. On the procedure:
as §1, §2, §3

B1: L96A: E. coli isopropylmalate dehydrogenase (LeuB) with Leu-96 replaced with alanine (protein, UniProt P30125 2-363, looked up, variant L96A)
3-isopropylmalate …: SKNYHIAVLPGDGIGPEVMTQALKVLDAVRNRFAMRITTSHYDVGGAAIDNHGQPLPPATVEGCEQADAVLFGSVGGPKWEHLPPDQQPERGALAPLRKHFKLFSNLRPAKLYQGLEAFCPLRADIAANGFDILCVRELTGGIYFGQPKGREGSGQYEKAFDTEVYHRFEIERIARIAFESARKRRHKVTSIDKANVLQSSILWREIVNEIATEYPDVELAHMYIDNATMQLIKDPSQFDVLLCSNLFGDILSDECAMITGSMGMLPSASLNEQGFGLYEPAGGSAPDIAGKNIANPIAQILSLALLLRYSLDADDAACAIERAINRALEEGIRTGDLARGAAAVSTDEMGDIIARYVAEGV
Regarding B1, the “efficiency of capturing 3-BM compared with the wild type enzyme” value in series [1] (in words) is given as “modestly poor”. In series [1], the Km was determined as 130 ± 20 µM and the turnover number (kcat) came to 7 ± 0.367 s⁻¹. In addition, the “Specific activity, 3-BM” value in series [2] came out at 9.48 nmol/min/µg. In series [3], the “Specific activity, 3-IPM” value came out at 15.4 nmol/min/µg. Moreover, in series [4], the “Specific activity, 3-HM” value came out at 0.77 nmol/min/µg and the “activity against 3-HM compared with the wild type enzyme” value was “higher activity than the wild type enzyme”. For the same molecule, in series [5], the Km came out at 240 ± 40 µM and the kcat worked out at 0.683 ± 0.0083 s⁻¹. For the same molecule, in series [6], the “decrease in efficiency of capturing 3-IPM compared with the wild type enzyme” value (shortened to “decrease in efficiency”) is given as “approximately 4 fold”, the Michaelis constant (Km) was determined as 16 ± 10 µM and the kcat was found to be 11.1 ± 2.57 s⁻¹.

B2: Wild type LeuB: native E. coli LeuB (isopropylmalate dehydrogenase), SEQ ID 2, histidine-tagged (protein, UniProt P30125 2-363, looked up)
3-isopropylmalate …: SKNYHIAVLPGDGIGPEVMTQALKVLDAVRNRFAMRITTSHYDVGGAAIDNHGQPLPPATVEGCEQADAVLFGSVGGPKWEHLPPDQQPERGALLPLRKHFKLFSNLRPAKLYQGLEAFCPLRADIAANGFDILCVRELTGGIYFGQPKGREGSGQYEKAFDTEVYHRFEIERIARIAFESARKRRHKVTSIDKANVLQSSILWREIVNEIATEYPDVELAHMYIDNATMQLIKDPSQFDVLLCSNLFGDILSDECAMITGSMGMLPSASLNEQGFGLYEPAGGSAPDIAGKNIANPIAQILSLALLLRYSLDADDAACAIERAINRALEEGIRTGDLARGAAAVSTDEMGDIIARYVAEGV
With B2, the Michaelis-Menten constant (Km) in series [1] turned out to be 38 ± 13 µM; in series [5], 160 ± 20 µM; in series [6] it was 9 ± 3 µM. Also, the kcat in series [1] turned out to be 3.65 ± 0.333 s⁻¹; in series [5], 0.433 ± 0.033 s⁻¹; in series [6], 23.92 ± 2.02 s⁻¹. The “Specific activity, 3-BM” value in series [2] amounted to 4.3 nmol/min/µg. In addition, the “Specific activity, 3-IPM” value in series [3] was found to be 18.3 nmol/min/µg. The “Specific activity, 3-HM” value in series [4] was found to be 0.68 nmol/min/µg. Besides, in series [6] (higher for 3-IPM than for 3-HM), the “catalytic efficiency for 3-IPM relative to that for 3-HM” value was 1,000 fold.

B3: V198A: E. coli LeuB variant with Val-198 replaced with alanine (protein, UniProt P30125 2-363, looked up, variant V198A)
3-isopropylmalate …: SKNYHIAVLPGDGIGPEVMTQALKVLDAVRNRFAMRITTSHYDVGGAAIDNHGQPLPPATVEGCEQADAVLFGSVGGPKWEHLPPDQQPERGALLPLRKHFKLFSNLRPAKLYQGLEAFCPLRADIAANGFDILCVRELTGGIYFGQPKGREGSGQYEKAFDTEVYHRFEIERIARIAFESARKRRHKVTSIDKANALQSSILWREIVNEIATEYPDVELAHMYIDNATMQLIKDPSQFDVLLCSNLFGDILSDECAMITGSMGMLPSASLNEQGFGLYEPAGGSAPDIAGKNIANPIAQILSLALLLRYSLDADDAACAIERAINRALEEGIRTGDLARGAAAVSTDEMGDIIARYVAEGV
As for B3, the “Specific activity, 3-BM” value in series [2] was 1.81 nmol/min/µg. The “Specific activity, 3-IPM” value in series [3] was 2.83 nmol/min/µg. In addition, in series [4], the “Specific activity, 3-HM” value is 2.5 nmol/min/µg and the “activity against 3-HM compared with the wild type enzyme” value is “higher activity than the wild type enzyme”. In series [5], the “increase in efficiency of capturing 3-HM compared with the wild type enzyme” value is on record as 5 fold, the Km was determined as 110 ± 10 µM and the turnover number (kcat) came to 1.62 ± 0.55 s⁻¹. Besides, the “decrease in efficiency” value in series [6] is recorded as 1,000 fold.

B4: L96G: E. coli LeuB variant with Leu-96 replaced with glycine (protein, UniProt P30125 2-363, looked up, variant L96G)
3-isopropylmalate …: SKNYHIAVLPGDGIGPEVMTQALKVLDAVRNRFAMRITTSHYDVGGAAIDNHGQPLPPATVEGCEQADAVLFGSVGGPKWEHLPPDQQPERGALGPLRKHFKLFSNLRPAKLYQGLEAFCPLRADIAANGFDILCVRELTGGIYFGQPKGREGSGQYEKAFDTEVYHRFEIERIARIAFESARKRRHKVTSIDKANVLQSSILWREIVNEIATEYPDVELAHMYIDNATMQLIKDPSQFDVLLCSNLFGDILSDECAMITGSMGMLPSASLNEQGFGLYEPAGGSAPDIAGKNIANPIAQILSLALLLRYSLDADDAACAIERAINRALEEGIRTGDLARGAAAVSTDEMGDIIARYVAEGV
As to B4, in series [1], the Km was found to be 1900 ± 200 µM and the turnover number (kcat) turned out to be 3.12 ± 0.1 s⁻¹. In addition, in series [2], the “Specific activity, 3-BM” value was determined as 1.5 nmol/min/µg. Moreover, the “Specific activity, 3-IPM” value in series [3] worked out at 2.90 nmol/min/µg. Moreover, in series [4], the “Specific activity, 3-HM” value was 9.5 nmol/min/µg and the “activity against 3-HM compared with the wild type enzyme” value is “higher activity than the wild type enzyme”. Also, in series [5], the “increase in efficiency of capturing 3-HM compared with the wild type enzyme” value came to 80 fold, the Michaelis constant (Km) came to 30 ± 3 µM and the turnover number (kcat) came to 7.58 ± 0.167 s⁻¹. The “decrease in efficiency” value in series [6] is 100 fold.

Broadly, the Km is the concentration of substrate that gives half-maximal velocity. Broadly, the kcat is the number of substrate molecules converted per active site and unit of time at saturation.

Source of the values: patent US9951356B2, “Processes to prepare elongated 2-ketoacids and C6-C10 compounds therefrom via genetic modifications to microbial metabolic pathways” (Dow Global Technologies LLC, priority 2013, dated 2018).
